Experimental data: patent US20090280480A1

Key:
[1] = target: T1, NM, the N-terminal and middle region of Saccharomyces cerevisiae Sup35 (soluble, unpolymerized) (Saccharomyces cerevisiae), P05453; experiment: quaternary structure analysis of soluble NM; method not named; settings: remark: other sources report otherwise
T1 chain: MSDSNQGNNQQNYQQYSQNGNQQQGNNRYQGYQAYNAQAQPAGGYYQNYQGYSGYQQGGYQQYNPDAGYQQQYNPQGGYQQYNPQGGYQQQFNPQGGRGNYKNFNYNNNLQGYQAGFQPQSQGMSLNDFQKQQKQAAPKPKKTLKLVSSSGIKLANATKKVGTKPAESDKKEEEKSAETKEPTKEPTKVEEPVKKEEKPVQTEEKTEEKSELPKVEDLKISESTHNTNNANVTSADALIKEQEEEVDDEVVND

[2] = target: T1, NM, the N-terminal and middle region of …; experiment: Microcon YM-100 (100 kDa cut off) filtration of fibrillization reactions; settings: remark: other sources report otherwise

B1: NM, the N-terminal and middle region of Saccharomyces cerevisiae Sup35 (soluble, unpolymerized), P05453 1-253 (protein)
chain: T1 chain
- percent monomeric after dilution out of denaturant [1]: 87%
- percent of total NM in an oligomeric state [2]: 10%
